In PMC6684389:

Molecular target: YTHDC1 YTH domain (UniProt Q96MU7 345-509)
Experiment: MST

Row | Binder | Kd
1 | AAAGGACGUGG (ssRNA, m6A at position 6) [probe 1] | 0.39 µM
2 | AAAGGACGUGG (ssRNA) [probe 2] | 16.9 µM
